Patent US20220064275A1 (SCHOLAR ROCK, published 2022)

How the values were obtained:
human proTGFβ1 C4S [1] = target: T1, human proTGFβ1 C4S (human, UniProt P01137 30-390); test: BLI (Octet Red384), proTGFβ1 C4S coupled to AR2G sensors, dissociation at pH 7; dissociation at pH 7
T1 construct: Small latent complex without presenting molecule; the cysteine that links to presenting molecules is changed to serine; also called small latent complex proTGFβ1 C4S; latent TGFβ1
Protocol: (§1) The antibodies were tested against sensor-immobilized human proTGFβ1 C4S, which contains a mutation in the prodomain to facilitate proTGFβ1 expression without disulfide linkage to a presentation molecule. Polystyrene 96-well black half area plates (Greiner Bio-One) and amine reactive second-generation (AR2G) biosensors (FortéBio) were utilized for this experiment.
(§2) AR2G biosensors were first allowed to hydrate in water offline for at least 10 minutes before the initiation of the experiment. Upon initiation of the experiment, AR2G tips were equilibrated in water for 1 minute. Then, the tips were moved into an activation solution for 5 minutes. The activation solution consists of 18 parts water, 1 part 400 mM EDC (1-Ethyl-3-[3-dimethylaminopropyl] carbodiimide hydrochloride), and 1 part 200 mM s-NHS (N-hydroxysulfosuccinimide). The activation solution is prepared immediately before use in the experiment. After tip activation, the tips were loaded for 3 minutes with a 10 ug/mL solution of human proTGFβ1 C4S in 10 mM sodium acetate buffer pH 5. After loading, the tips were quenched in ethanolamine pH 8.5 for 15 minutes. The tips were then baseline/blocked with a 20 minute incubation in 1× enhanced kinetics buffer.

human proTGFβ1 C4S [2] = target: T1, human proTGFβ1 C4S; test: BLI (Octet Red384), proTGFβ1 C4S coupled to AR2G sensors, dissociation at pH 5; dissociation at pH 5
Protocol: as §1, §2

[3] = target: hGARP-proTGFβ1 complex on cells (human, UniProt Q14392 20-662; P01137 30-390); test: cell-based or functional assay
[4] = target: hLTBP3-proTGFβ1 complex made by transfected cells (cell-based potency assay) (human, UniProt Q9NS15 44-1303; P01137 30-390); test: cell-based or functional assay
[5] = target: hLTBP1-proTGFβ1 complex made by transfected cells (cell-based potency assay) (human, UniProt Q14766 347-1721; P01137 30-390); test: cell-based or functional assay
[6] = target: hLRRC33-proTGFβ1 complex on cells (human, UniProt Q86YC3 19-692; P01137 30-390); test: cell-based or functional assay
[7] = target: T2, human LTBP1-proTGFβ1 complex (human, UniProt Q14766 873-1507); test: MSD-SET, solution equilibrium titration
T2 construct: range 873-1507; biotinylated in Octet and MSD-SET; also called hLTBP1-proTGFβ1; hLTBP1
Protocol: (§3) MSD-SET assays were performed to measure affinities of the antibodies at equilibrium. Briefly, each test antibody was diluted 3-5 fold and samples were mixed with biotinylated antigen in a 48-well dish. The SET samples were equilibrated for 20-24 hours at room temperature. Meanwhile, a capture plate was coated with IgG (20 nM) and incubated overnight at 4° C. or 30 minutes at room temperature, followed by a blocking step with 5% BSA. After the capture plate was washed three times, SET samples were added and incubated for 150 seconds. The plate was washed once to remove unbound complexes. 250 ng/ml SA-Sulfotag was added then washed 3 times. 2× Read Buffer was added, and signals from the labeled bound complexes were read with the use of QuickPlex™ SQ 120 instrument.

[8] = target: T3, human LRRC33-proTGFβ1 complex (human, UniProt Q86YC3 19-650; P01137 30-390); test: MSD-SET, solution equilibrium titration
T3 construct: also called hLRRC33-proTGFβ1; hLRRC33
Protocol: as §3

[9] = target: T4, human LTBP3-proTGFβ1 complex (human, UniProt Q9NS15 866-1039); test: MSD-SET, solution equilibrium titration
T4 construct: range 866-1039; also called hLTBP3-proTGFβ1; hLTBP3
Protocol: as §3

[10] = target: T5, human GARP-proTGFβ1 complex (human, UniProt Q14392 20-627; P01137 30-390); test: MSD-SET, solution equilibrium titration
T5 construct: also called hGARP-proTGFβ1; hGARP
Protocol: as §3

[11] = target: T2, human LTBP1-proTGFβ1 complex; test: BLI (Octet)
[12] = target: T3, human LRRC33-proTGFβ1 complex; test: BLI (Octet)
[13] = target: T4, human LTBP3-proTGFβ1 complex; test: BLI (Octet)
[14] = target: T5, human GARP-proTGFβ1 complex; test: BLI (Octet)

T4 sequence (Q9NS15 866-1039 limits assumed, chain 1 of 2): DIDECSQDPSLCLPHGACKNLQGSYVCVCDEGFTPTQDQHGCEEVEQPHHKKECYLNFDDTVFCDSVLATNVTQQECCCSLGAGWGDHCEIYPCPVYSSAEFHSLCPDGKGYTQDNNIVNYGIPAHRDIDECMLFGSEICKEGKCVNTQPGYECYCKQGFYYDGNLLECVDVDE
T4 sequence (chain, as listed by the source limits assumed, chain 2 of 2): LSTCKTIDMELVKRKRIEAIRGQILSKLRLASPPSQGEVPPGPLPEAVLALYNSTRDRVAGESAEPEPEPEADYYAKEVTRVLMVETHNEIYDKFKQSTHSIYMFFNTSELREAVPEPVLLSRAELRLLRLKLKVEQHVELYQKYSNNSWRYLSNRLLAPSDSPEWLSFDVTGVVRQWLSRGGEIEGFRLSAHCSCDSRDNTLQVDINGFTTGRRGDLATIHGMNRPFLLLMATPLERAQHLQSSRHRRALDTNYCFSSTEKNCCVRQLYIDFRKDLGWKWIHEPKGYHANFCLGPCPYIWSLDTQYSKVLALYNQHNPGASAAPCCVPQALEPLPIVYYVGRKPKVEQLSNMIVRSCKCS
T1 sequence (P01137 other isoform, or with tags, fused parts or gaps): as the sequence (chain, as listed by the source limits assumed, chain 2 of 2) above, with C4S counted along it
T3 sequence (Q86YC3 other isoform, or with tags, fused parts or gaps limits assumed, chain 1 of 2): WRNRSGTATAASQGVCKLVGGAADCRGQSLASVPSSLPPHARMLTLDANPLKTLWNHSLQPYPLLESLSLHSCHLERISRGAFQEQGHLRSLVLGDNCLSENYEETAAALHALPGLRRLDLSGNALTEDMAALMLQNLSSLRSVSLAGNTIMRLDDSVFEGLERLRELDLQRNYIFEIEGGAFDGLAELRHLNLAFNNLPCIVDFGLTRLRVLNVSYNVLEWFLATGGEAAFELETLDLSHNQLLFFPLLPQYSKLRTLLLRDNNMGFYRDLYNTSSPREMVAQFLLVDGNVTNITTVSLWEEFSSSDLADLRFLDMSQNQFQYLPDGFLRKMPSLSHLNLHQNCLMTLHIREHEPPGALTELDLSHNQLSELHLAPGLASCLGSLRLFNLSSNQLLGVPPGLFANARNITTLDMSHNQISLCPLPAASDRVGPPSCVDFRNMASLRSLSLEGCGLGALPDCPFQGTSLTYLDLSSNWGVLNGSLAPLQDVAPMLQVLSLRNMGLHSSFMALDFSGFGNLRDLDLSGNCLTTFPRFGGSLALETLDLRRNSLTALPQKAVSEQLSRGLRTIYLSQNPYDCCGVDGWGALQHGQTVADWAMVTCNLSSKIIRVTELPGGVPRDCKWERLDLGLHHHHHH
T3 sequence (P01137 30-390 limits assumed, chain 2 of 2): as the sequence (chain, as listed by the source limits assumed, chain 2 of 2) above
T5 sequence (Q14392 20-627, chain 1 of 2): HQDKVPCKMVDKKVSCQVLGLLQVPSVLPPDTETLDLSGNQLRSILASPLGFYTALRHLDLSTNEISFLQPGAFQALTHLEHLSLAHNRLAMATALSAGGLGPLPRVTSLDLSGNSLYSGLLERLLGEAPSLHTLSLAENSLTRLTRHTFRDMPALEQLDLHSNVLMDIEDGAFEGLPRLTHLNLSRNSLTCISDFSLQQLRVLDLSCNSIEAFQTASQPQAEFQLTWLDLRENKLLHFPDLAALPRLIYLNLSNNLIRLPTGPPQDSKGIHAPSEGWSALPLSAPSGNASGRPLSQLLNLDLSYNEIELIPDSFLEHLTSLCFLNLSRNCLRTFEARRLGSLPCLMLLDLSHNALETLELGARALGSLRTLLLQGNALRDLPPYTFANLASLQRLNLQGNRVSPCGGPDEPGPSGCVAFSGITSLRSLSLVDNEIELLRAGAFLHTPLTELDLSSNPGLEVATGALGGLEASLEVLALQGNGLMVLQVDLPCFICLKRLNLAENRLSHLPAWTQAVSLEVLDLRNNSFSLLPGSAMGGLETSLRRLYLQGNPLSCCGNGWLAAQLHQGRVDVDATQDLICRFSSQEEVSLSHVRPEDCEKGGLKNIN
T5 sequence (P01137 30-390, chain 2 of 2): as the sequence (chain, as listed by the source limits assumed, chain 2 of 2) above
T2 sequence (Q14766 873-1507 limits assumed, chain 1 of 2): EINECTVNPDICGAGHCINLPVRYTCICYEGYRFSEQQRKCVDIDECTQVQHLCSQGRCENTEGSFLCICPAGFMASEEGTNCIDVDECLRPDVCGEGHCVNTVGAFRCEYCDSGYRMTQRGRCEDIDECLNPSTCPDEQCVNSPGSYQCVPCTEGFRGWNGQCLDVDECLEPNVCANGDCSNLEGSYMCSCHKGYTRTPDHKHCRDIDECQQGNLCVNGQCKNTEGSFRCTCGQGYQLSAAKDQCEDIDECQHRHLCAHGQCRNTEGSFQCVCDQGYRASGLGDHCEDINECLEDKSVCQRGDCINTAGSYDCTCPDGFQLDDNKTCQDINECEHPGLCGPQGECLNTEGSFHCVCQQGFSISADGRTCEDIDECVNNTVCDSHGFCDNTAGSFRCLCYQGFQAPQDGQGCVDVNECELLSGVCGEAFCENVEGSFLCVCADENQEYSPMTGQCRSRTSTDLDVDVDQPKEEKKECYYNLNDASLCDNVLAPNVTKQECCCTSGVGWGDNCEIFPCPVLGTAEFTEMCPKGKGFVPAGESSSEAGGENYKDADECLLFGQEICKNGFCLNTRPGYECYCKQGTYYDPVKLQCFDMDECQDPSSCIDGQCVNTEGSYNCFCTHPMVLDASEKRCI
T2 sequence (chain, as listed by the source limits assumed, chain 2 of 2): as the sequence (chain, as listed by the source limits assumed, chain 2 of 2) above
Chain of hGARP-proTGFβ1 complex on cells (Q14392 20-662 limits assumed, chain 1 of 2): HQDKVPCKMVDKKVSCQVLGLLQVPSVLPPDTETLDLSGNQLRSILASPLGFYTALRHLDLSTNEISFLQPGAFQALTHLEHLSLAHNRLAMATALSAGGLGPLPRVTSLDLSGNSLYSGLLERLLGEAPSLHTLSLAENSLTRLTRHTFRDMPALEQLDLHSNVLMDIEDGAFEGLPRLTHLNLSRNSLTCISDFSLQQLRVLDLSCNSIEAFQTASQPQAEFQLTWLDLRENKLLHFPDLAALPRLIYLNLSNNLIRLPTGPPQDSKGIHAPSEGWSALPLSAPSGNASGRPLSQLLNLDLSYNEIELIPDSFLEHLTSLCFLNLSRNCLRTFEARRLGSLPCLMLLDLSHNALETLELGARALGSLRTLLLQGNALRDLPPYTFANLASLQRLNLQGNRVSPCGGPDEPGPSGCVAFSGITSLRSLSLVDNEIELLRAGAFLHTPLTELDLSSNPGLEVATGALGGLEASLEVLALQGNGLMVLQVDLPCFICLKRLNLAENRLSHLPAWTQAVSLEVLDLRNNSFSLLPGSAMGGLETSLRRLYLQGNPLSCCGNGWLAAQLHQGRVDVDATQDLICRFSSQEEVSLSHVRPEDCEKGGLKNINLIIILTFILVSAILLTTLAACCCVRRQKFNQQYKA
Chain of hGARP-proTGFβ1 complex on cells (P01137 30-390 limits assumed, chain 2 of 2): as the sequence (chain, as listed by the source limits assumed, chain 2 of 2) above
Chain of hLTBP3-proTGFβ1 complex made by transfected cells (cell-based potency assay) (Q9NS15 44-1303, chain 1 of 2): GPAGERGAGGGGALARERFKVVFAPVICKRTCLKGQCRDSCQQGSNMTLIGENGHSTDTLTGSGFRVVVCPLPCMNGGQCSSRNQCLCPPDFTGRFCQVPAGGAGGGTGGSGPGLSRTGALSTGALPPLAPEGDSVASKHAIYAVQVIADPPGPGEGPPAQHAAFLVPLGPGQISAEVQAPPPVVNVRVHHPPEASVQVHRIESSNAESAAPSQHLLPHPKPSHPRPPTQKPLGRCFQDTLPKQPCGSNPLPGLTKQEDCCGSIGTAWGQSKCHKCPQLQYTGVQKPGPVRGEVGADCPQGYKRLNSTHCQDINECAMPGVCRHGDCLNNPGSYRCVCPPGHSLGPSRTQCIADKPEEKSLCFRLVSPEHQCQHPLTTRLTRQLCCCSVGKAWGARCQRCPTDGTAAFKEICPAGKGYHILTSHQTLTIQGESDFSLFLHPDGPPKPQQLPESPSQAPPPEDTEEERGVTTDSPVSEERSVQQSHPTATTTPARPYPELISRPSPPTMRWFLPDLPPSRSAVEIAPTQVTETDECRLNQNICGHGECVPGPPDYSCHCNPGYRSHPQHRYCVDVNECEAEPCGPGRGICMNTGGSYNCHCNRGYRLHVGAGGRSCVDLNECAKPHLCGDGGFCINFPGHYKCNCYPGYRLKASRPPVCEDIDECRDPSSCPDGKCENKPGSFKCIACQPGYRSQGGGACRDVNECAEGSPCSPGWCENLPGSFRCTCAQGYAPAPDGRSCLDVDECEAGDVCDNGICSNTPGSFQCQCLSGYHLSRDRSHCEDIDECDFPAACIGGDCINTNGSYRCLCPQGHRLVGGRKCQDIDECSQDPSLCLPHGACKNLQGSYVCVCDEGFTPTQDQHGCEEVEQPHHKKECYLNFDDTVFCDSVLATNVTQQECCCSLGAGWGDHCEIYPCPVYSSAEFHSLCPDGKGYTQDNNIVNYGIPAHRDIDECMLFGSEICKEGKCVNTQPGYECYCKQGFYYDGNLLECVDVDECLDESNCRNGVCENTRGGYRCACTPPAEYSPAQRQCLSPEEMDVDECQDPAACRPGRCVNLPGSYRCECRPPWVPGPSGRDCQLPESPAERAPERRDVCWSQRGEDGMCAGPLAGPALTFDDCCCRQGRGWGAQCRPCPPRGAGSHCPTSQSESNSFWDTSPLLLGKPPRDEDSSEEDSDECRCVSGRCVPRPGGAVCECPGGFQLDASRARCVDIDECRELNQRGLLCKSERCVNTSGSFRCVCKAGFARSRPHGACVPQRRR
Chain of hLTBP3-proTGFβ1 complex made by transfected cells (cell-based potency assay) (P01137 30-390, chain 2 of 2): as the sequence (chain, as listed by the source limits assumed, chain 2 of 2) above

- koff (human proTGFβ1 C4S [1]): 0.00278 s⁻¹
- koff (human proTGFβ1 C4S [2]): 0.00561 s⁻¹
- IC50, reporter cell assay of TGFβ1 activation [3]: 0.776 nM
- IC50, reporter cell assay of TGFβ1 activation [4]: 0.867 nM
- IC50, reporter cell assay of TGFβ1 activation [5]: 3.39 nM
- IC50, reporter cell assay of TGFβ1 activation [6]: 1.38 nM
- Kd [7]: 0.36 nM
- Kd [8]: 3.2 nM
- Kd [9]: 0.171 nM
- Kd [10]: 1.4 nM
- Kd [11]: 0.165 nM
- Kd [12]: 0.508 nM
- Kd [13]: 0.148 nM
- Kd [14]: 0.778 nM
B1: Ab2 (antibody, human IgG4 S228P, kappa, V domains shown)
VH: EVQLLESGGGLVQPGGSLRLSCAASGFTFADYAMTWVRQAPGKGLEWVSAISGSGAATYFADSVKGRFTISRDNSKNTLYLQMNSLRAEDTAVYYCARVSSGHWDFDYWGQGTLVTVSS
VL: DIQLTQSPSSLSASVGDRVTITCRASQSISSYLNWYQQKPGKAPKLLIYAASNLQSGVPSRFSGSGSGTDFTLTISSLQPEDFATYYCQQTYTVPLTFGGGTKVEIKR
